According to publication PMC5389471 (Nucleic Acids Research, 2016):

What was measured:
AibR [1] = biological target: T1, AibR (Myxococcus xanthus, UniProt Q1D4I5); test: MST Kd with Cy5-labelled AibR; format: binding
T1 sequence (Q1D4I5 1-228): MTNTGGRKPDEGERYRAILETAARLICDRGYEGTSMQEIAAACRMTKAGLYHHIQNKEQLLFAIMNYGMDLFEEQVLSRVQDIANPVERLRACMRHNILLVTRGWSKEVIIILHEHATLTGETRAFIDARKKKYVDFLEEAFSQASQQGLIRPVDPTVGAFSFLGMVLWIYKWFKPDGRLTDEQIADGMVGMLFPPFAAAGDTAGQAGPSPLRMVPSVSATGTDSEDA

[2] = biological target: AibR, TetR-like transcriptional regulator of the AIB-operon (Myxococcus xanthus); test: SEC
[3] = biological target: AibR, TetR-like transcriptional regulator of the AIB-operon (Myxococcus xanthus); test: crystal structure
AibR [4] = biological target: T2, AibR (UniProt Q1D4I5 1-228); test: MST
T2 sequence: T1 sequence (Q1D4I5 1-228)

AibR [5] = biological target: T2, AibR; test: crystal structure
AibR [6] = biological target: T2, AibR; test: EMSA

**Q.** For `CC(C)=CC(=O)SCCNC(=O)CCNC(=O)[C@H](O)C(C)(C)COP(=O)(O)OP(=O)(O)OC[C@H]1O[C@@H](n2cnc3c(N)ncnc32)[C@H](O)[C@@H]1OP(=O)(O)O` [3,3-dimethylacrylyl coenzyme A], which Kd (AibR [1]) is on record?
**A.** 5800 ± 1510 nM

**Q.** With “AibR, TetR-like transcriptional regulator of the AIB-operon (natural protein)” as the molecule, how does the stoichiometry N [2] read?
**A.** 2

**Q.** And the stoichiometry N [3]?
**A.** 2

B1: Cy5 21 bp operator (dsDNA)
DNA 1: GCTACCTACCGGTCGGTAGGT
DNA 2: ACCTACCGACCGGTAGGTAGC
**Q.** B1 was tested. Which Kd (AibR [4]) did it give?
**A.** 2300 ± 850 nM

B2: 16-bp palindrome (nt 2-17, G9A) (dsDNA)
DNA 1: CCTACCGATCGGTAGG
DNA 2: CCTACCGATCGGTAGG
**Q.** Does B2 bind (AibR [5])?
**A.** binds

B3: P3791 (dsDNA)
DNA 1: CCCCTGCCCAACCTACCGGTCGGACGGTTCCTAGCGGG
DNA 2: TCATCCGCGCCACCCGCTAGGAACCGTCCGACCGGTAGGTTGGGCAGGGG
**Q.** Does B3 bind (AibR [6])?
**A.** binds

B4: 3aibR12 (G12T) (dsDNA)
DNA 1: CGCTGCTACCTACCGGTCTGTAGGTCTCCA
DNA 2: TCATCCGCGCCATGGAGACCTACAGACCGGTAGGTAGCAGCG
**Q.** Does B4 bind (AibR [6])?
**A.** no binding

B5: aibR-Cy5 40 bp (dsDNA)
DNA 1: CCGCGTCGGGCGCTGCTACCTACCGGTCGGTAGGTCTCCA
DNA 2: TGGAGACCTACCGACCGGTAGGTAGCAGCGCCCGACGCGG
**Q.** Which Kd (AibR [6]) does the source give for B5 here?
**A.** 233 ± 20 nM

B6: aibR8 (dsDNA)
DNA 1: B5 DNA 1
DNA 2: TCATCCGCGCCATGGAGACCTACCGACCGGTAGGTAGCAGCGCCCGACGCGG
**Q.** Does B6 bind (AibR [6])?
**A.** binds
